In the Immune Epitope Database (IEDB):

Tests used:
Experiment in all cases: IEDB peptide-MHC binding, purified MHC/competitive/radioactivity; filed as Kd, often an IC50 or EC50 that approximates it; ≥ and ≤ were set here for values at or beyond the usual limits of such assays
HLA-A*33:01 = target: HLA-A*33:01
HLA-A*68:01 = target: HLA-A*68:01
HLA-A*03:01 = target: HLA-A*03:01
HLA-A*31:01 = target: HLA-A*31:01
HLA-A*11:01 = target: HLA-A*11:01
[1] = source organism: Vaccinia virus WR
[2] = source organism: Dengue virus 3 Martinique/1243/1999
[3] = source organism: SARS coronavirus Tor2
[4] = source organism: Dengue virus 1 Brazil/97-11/1997
[5] = source organism: Dengue virus 2 Jamaica/1409/1983
[6] = source organism: Mammarenavirus brazilense
[7] = source organism: Dengue virus 4 Philippines/H241/1956
[8] = source organism: Mammarenavirus juninense

| Sequence | Kd (HLA-A*33:01; [1]) | Kd (HLA-A*68:01; [1]) | Kd (HLA-A*03:01; [1]) | Kd (HLA-A*31:01; [1]) | Kd (HLA-A*11:01; [1]) | other results |
| --- | --- | --- | --- | --- | --- | --- |
| KIMEIVSHLR | 63.5 nM | 2.42 nM | 73 nM | 0.559 nM | 3.61 nM | – |
| IMEIVSHLR | 53.3 nM | 3.25 nM | 1960 nM | 11.9 nM | 219 nM | – |
| NTMCTEETK | 15700 nM | 12.5 nM | ≥ 78000 nM | ≥ 77900 nM | 27.9 nM | – |
| NVQFVDINR | 12.7 nM | 0.399 nM | ≥ 23000 nM | 38.1 nM | 193 nM | – |
| TIREFPRKDK | ≥ 40900 nM | 7280 nM | 13100 nM | 295 nM | 16200 nM | – |
| MLSIINKRKK | – | – | – | – | – | Kd (HLA-A*03:01; [2]): 524 nM |
| EINKNPKYK | – | – | – | – | – | Kd (HLA-A*03:01; source organism: Homo sapiens): 753 nM |
| ILARNEEGR | 1050 nM | 87 nM | 16600 nM | 4570 nM | ≥ 77900 nM | – |
| DMMLMIGNY | 3820 nM | 780 nM | ≥ 47700 nM | 11000 nM | 12700 nM | – |
| FIRRKYLIY | ≥ 52400 nM | ≥ 53500 nM | 1500 nM | ≥ 77900 nM | ≥ 26900 nM | – |
| MFMLIFNVK | 4020 nM | 1340 nM | 1650 nM | 125 nM | 587 nM | – |
| TQVYIAVNDK | – | – | – | – | – | Kd (HLA-A*33:01; [3]): 9360 nM; Kd (HLA-A*68:01; [3]): 1330 nM; Kd (HLA-A*03:01; [3]): 186 nM; Kd (HLA-A*31:01; [3]): 6720 nM; Kd (HLA-A*11:01; [3]): 720 nM |
| PIIVAGFSGK | ≥ 45600 nM | 3760 nM | 681 nM | ≥ 70000 nM | 761 nM | – |
| SINKVYGRY | ≥ 77700 nM | 1990 nM | 526 nM | 140 nM | 195 nM | – |
| LVCFPSTQR | 73 nM | 10.8 nM | 698 nM | 37.5 nM | 40.6 nM | – |
| LMSAAIKDSK | – | – | – | – | – | Kd (HLA-A*03:01; [4]): 66.7 nM |
| LITENKIWGR | – | – | – | – | – | Kd (HLA-A*31:01; source organism: Dengue virus 1 Nauru/West Pac/1974): ≥ 21100 nM |
| KVVDLGCGR | – | – | – | – | – | Kd (HLA-A*31:01; [5]): 1.29 nM |
| YVNHTASGEH | – | – | – | – | – | Kd (HLA-A*33:01; [6]): ≥ 69000 nM; Kd (HLA-A*68:01; [6]): ≥ 21700 nM; Kd (HLA-A*03:01; [6]): ≥ 70000 nM; Kd (HLA-A*31:01; [6]): ≥ 70000 nM; Kd (HLA-A*11:01; [6]): ≥ 69700 nM |
| KLVYIFEPEK | ≥ 70000 nM | 1690 nM | 53.7 nM | 9210 nM | 154 nM | – |
| TLFVWYFWQK | – | – | – | – | – | Kd (HLA-A*03:01; [4]): 24.6 nM; Kd (HLA-A*11:01; [4]): 54.8 nM |
| IAHINTLIQY | 6860 nM | 1510 nM | 383 nM | 8780 nM | 975 nM | – |

| Sequence | Kd (HLA-A*33:01; [1]) | Kd (HLA-A*68:01; [1]) | Kd (HLA-A*03:01; [1]) | Kd (HLA-A*31:01; [1]) | Kd (HLA-A*11:01; [1]) | other results |
| --- | --- | --- | --- | --- | --- | --- |
| KVTEVKGYTK | – | – | – | – | – | Kd (HLA-A*11:01; [4]): 212 nM |
| QLQLLMPLK | – | – | – | – | – | Kd (HLA-A*33:01; [3]): 2350 nM; Kd (HLA-A*68:01; [3]): 13400 nM; Kd (HLA-A*03:01; [3]): 151 nM; Kd (HLA-A*31:01; [3]): 1480 nM; Kd (HLA-A*11:01; [3]): 14.3 nM |
| TLSLDYAWK | – | – | – | – | – | Kd (HLA-A*03:01; [4]): 181 nM |
| TFQLLNMIK | 102 nM | 11.5 nM | 20.8 nM | 326 nM | 19.5 nM | – |
| AAISKLGINY | 1210 nM | 279 nM | 320 nM | 1400 nM | 357 nM | – |
| MSAAIKDQK | – | – | – | – | – | Kd (HLA-A*68:01; [7]): 50.9 nM; Kd (HLA-A*11:01; [7]): 480 nM |
| TTKRDLGMSK | – | – | – | – | – | Kd (HLA-A*11:01; [2]): 115 nM |
| GKQYIHCFRK | – | – | – | – | – | Kd (HLA-A*33:01; [8]): ≥ 29500 nM; Kd (HLA-A*68:01; [8]): 1730 nM; Kd (HLA-A*03:01; [8]): 2210 nM; Kd (HLA-A*31:01; [8]): 3670 nM; Kd (HLA-A*11:01; [8]): 1510 nM |
| MVSVSDFRDY | ≥ 70000 nM | 3960 nM | ≥ 70100 nM | ≥ 70000 nM | 17700 nM | – |
| RVMANNVKKK | ≥ 28200 nM | 539 nM | 103 nM | 760 nM | 96 nM | – |
| ASNAPSAAK | – | – | – | – | – | Kd (HLA-A*11:01; source organism: Homo sapiens): 14 nM |
| VAGTGVQFY | ≥ 77700 nM | ≥ 77700 nM | 7270 nM | ≥ 53900 nM | ≥ 26500 nM | – |
| DIISRRDQR | – | – | – | – | – | Kd (HLA-A*33:01; [5]): 105 nM; Kd (HLA-A*68:01; [5]): 36.1 nM |
| MISYGGGWR | – | – | – | – | – | Kd (HLA-A*68:01; [7]): 111 nM |
| LALGFFLRK | – | – | – | – | – | Kd (HLA-A*03:01; [2]): 3.33 nM; Kd (HLA-A*11:01; [2]): 9.58 nM |
| KFISDNKKEY | ≥ 70000 nM | ≥ 40700 nM | ≥ 70100 nM | 427 nM | ≥ 69800 nM | – |
| FIFSALDEK | ≥ 66800 nM | 24.5 nM | 156 nM | ≥ 49200 nM | 65.1 nM | – |
| RLQLSNGNR | – | – | – | – | – | Kd (HLA-A*03:01; source organism: Homo sapiens): 407 nM |
| TLEEAKTALK | – | – | – | – | – | Kd (HLA-A*33:01; [3]): ≥ 70000 nM; Kd (HLA-A*68:01; [3]): ≥ 10000 nM; Kd (HLA-A*03:01; [3]): 1350 nM; Kd (HLA-A*31:01; [3]): ≥ 47600 nM; Kd (HLA-A*11:01; [3]): 4630 nM |
| NVPERQLILR | 2.86 nM | 0.0657 nM | 18700 nM | 87.8 nM | 323 nM | – |
| VLARWGTFK | – | – | – | – | – | Kd (HLA-A*03:01; [2]): 3.08 nM; Kd (HLA-A*11:01; [2]): 52.3 nM |
| EVMRGKFGK | – | – | – | – | – | Kd (HLA-A*68:01; [2]): 55.7 nM; Kd (HLA-A*11:01; [2]): 850 nM |
